In US20240279281A1, “Peptide Inhibitors of Interleukin-23 Receptor” (Janssen Pharmaceutica NV, priority 2023, published 2024) one finds IL23R Reporter Assay IC50 and PBMC pSTAT3 IC50 data, which are given here for 18 molecules.

Starred links: 1 amine or outer side, 2 acyl side, 3 side chain; linkers in the order of their positions; H or OH if unused. Positions of bridges follow the written chain, without caps; N, C: chain ends. Non-standard residues stand in square brackets, D forms with d. No end group written: not given here. X1 = 3‑(7-(3-acetamidophenyl)-1H-indol-3-yl)‑2‑aminopropanoic acid, CC(=O)Nc1cccc(-c2cccc3c(CC(N[*:1])C(=O)[*:2])c[nH]c23)c1; X10 = 2‑amino‑3‑(4-(2-guanidinoethoxy)phenyl)propanoic acid, N=C(N)NCCOc1ccc(CC(N[*:1])C(=O)[*:2])cc1; X7 = 2‑amino‑3‑(5-methylpyridin-3-yl)propanoic acid, Cc1cncc(CC(N[*:1])C(=O)[*:2])c1; 2Nal(6-OH) = N[C@@H](Cc1ccc2cc(O)ccc2c1)C(=O)O; Trp(7-Me) = Cc1cccc2c(C[C@H](N)C(=O)O)c[nH]c12; d(hLys(Me3)) = C[N+](C)(C)CCCCC[C@@H](N)C(=O)O; AEF = NCCOc1ccc(C[C@H](N)C(=O)O)cc1; 3Pal = N[C@@H](Cc1cccnc1)C(=O)O; Lipidated = not defined here; NMeK = CN[C@@H](CCCCN)C(=O)O; Pen = CC(C)(S)[C@H](N)C(=O)O; αMeC = C[C@](N)(CS)C(=O)O; lipid = not defined here; Thp = NC1(C(=O)O)CCOCC1; Abu = CC[C@H](N)C(=O)O; PEG = not defined here; Ava = NCCCCC(=O)O; Sar = CNCC(=O)O

This test deals with T1, interleukin-23 receptor (IL-23R), Q5VWK5.
T1 chain: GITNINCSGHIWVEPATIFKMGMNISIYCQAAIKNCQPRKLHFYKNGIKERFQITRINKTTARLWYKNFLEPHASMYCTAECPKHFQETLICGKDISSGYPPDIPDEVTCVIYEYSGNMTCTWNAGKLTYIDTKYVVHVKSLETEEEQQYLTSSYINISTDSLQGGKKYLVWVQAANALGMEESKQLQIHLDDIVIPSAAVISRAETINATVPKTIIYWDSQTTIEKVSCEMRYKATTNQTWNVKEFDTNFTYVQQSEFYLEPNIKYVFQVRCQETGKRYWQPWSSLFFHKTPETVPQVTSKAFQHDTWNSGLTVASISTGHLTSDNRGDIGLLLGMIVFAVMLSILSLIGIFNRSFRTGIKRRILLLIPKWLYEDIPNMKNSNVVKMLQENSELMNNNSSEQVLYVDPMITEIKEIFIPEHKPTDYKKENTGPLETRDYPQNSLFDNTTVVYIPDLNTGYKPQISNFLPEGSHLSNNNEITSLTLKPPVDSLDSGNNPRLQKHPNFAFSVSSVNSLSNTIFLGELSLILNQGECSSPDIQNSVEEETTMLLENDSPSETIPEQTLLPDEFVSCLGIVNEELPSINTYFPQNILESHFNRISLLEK
Briefly: cell-based or functional assay.

In the case of [(R)‑3‑carboxy‑2‑(4-(((R)-5-carboxy-5-hydrazineylpentyl)amino)-4-oxobutanamido)‑N,N,N‑trimethylpropan‑1‑aminium][Pen]NT[Trp(7-Me)]K(Ac)[Pen][2‑amino‑3‑(4-(2-aminoethoxy)phenyl)propanoic acid][2‑amino‑3‑(6-hydroxynaphthalen-2-yl)propanoic acid][Thp]EN[3Pal][NMeK](lipid) (disulfide 2-7 (inferred); not fully specified; ends not checked) [SEQ ID NO: 168], the IL23R Reporter Assay IC50 was above 100 nM and the PBMC pSTAT3 IC50 was below 1 nM. On the same counts, the results for [Ava][Abu]NT[Trp(7-Me)]K(Ac)C[2‑amino‑3‑(4-(2-aminoethoxy)phenyl)propanoic acid][2‑amino‑3‑(6-hydroxynaphthalen-2-yl)propanoic acid][Thp]EN[3Pal][Sar] (ends and bridges not checked) [SEQ ID NO: 171] are below 10 nM and below 0.01 nM.

B1: SEQ ID NO: 189 (peptide)
peptide: [Pen]NT[Trp(7-Me)]K(Lipidated)[Pen][2‑amino‑3‑(4-(2-aminoethoxy)phenyl)propanoic acid][2‑amino‑3‑(6-hydroxynaphthalen-2-yl)propanoic acid][Thp]K(Ac)N[3Pal][Sar]
modifications: disulfide 1-6 (inferred); ends not checked; also: K5 lipidated lysine, lipid not given here
Turning to B1, the IL23R Reporter Assay IC50 is above 100 nM and the PBMC pSTAT3 IC50 was below 1 nM. On the same counts, the results for [Ava][Abu]NTWQC[2‑amino‑3‑(4-(2-aminoethoxy)phenyl)propanoic acid][2‑amino‑3‑(6-hydroxynaphthalen-2-yl)propanoic acid][Thp]EN[3Pal][Sar] (ends and bridges not checked) [SEQ ID NO: 172] are below 10 nM and below 0.01 nM. For the molecule R[Abu]NTWK(Ac)[αMeC][AEF][2Nal(6-OH)][Thp]K(Ac)N[3Pal][Sar] (ends and bridges not checked) [SEQ ID NO: 29], the IL23R Reporter Assay IC50 is below 10 nM and the PBMC pSTAT3 IC50 was below 0.1 nM. For the molecule R[Pen]NT[Trp(7-Me)]K(Ac)[Pen][2‑amino‑3‑(4-(2-aminoethoxy)phenyl)propanoic acid][2‑amino‑3‑(6-hydroxynaphthalen-2-yl)propanoic acid][Thp]K(Ac)N[3Pal][Sar] (disulfide 2-7 (inferred); ends not checked) [SEQ ID NO: 219], the IL23R Reporter Assay IC50 was below 10 nM and the PBMC pSTAT3 IC50 was below 0.1 nM. As for R[Abu]NTWK(Ac)[αMeC][AEF][2Nal(6-OH)][Thp]K(Ac)N[3Pal][Sar] (ends and bridges not checked) [SEQ ID NO: 28], the IL23R Reporter Assay IC50 was below 10 nM. For the molecule [Pen]NT[X1]K(Ac)[Pen][5‑(4-(2-amino-2-carboxyethyl)phenoxy)‑N,N,N‑trimethylpentan‑1‑aminium][2‑amino‑3‑(6-hydroxynaphthalen-2-yl)propanoic acid][Thp]EN[X7][Sar] (ends and bridges not checked) [SEQ ID NO: 22], the IL23R Reporter Assay IC50 is below 10 nM and the PBMC pSTAT3 IC50 was below 0.01 nM.

B2: SEQ ID NO: 167 (peptide)
peptide: [(R)‑3‑carboxy‑2‑(4-(((R)-5-carboxy-5-hydrazineylpentyl)amino)-4-oxobutanamido)‑N,N,N‑trimethylpropan‑1‑aminium][Pen]NT[Trp(7-Me)]K(Ac)[Pen][2‑amino‑3‑(4-(2-aminoethoxy)phenyl)propanoic acid][2‑amino‑3‑(6-hydroxynaphthalen-2-yl)propanoic acid][Thp]EN[3Pal][NMeK](lipid)
modifications: disulfide 2-7 (inferred); ends not checked; also: X14: lipidated N-methyl-lysine, lipid and methyl place not given here
As to B2, the IL23R Reporter Assay IC50 is above 100 nM and the PBMC pSTAT3 IC50 was below 1 nM.

B3: SEQ ID NO: 178 (peptide)
peptide: [Pen]NT[Trp(7-Me)]K(lipid)[Pen][2‑amino‑3‑(4-(2-aminoethoxy)phenyl)propanoic acid][2‑amino‑3‑(6-hydroxynaphthalen-2-yl)propanoic acid][Thp]K(Ac)N[3Pal][Sar]
modifications: disulfide 1-6 (inferred); ends not checked; also: K5 lipidated, lipid not given here
B3 yielded an IL23R Reporter Assay IC50 above 100 nM and a PBMC pSTAT3 IC50 above 1 nM.

B4: SEQ ID NO: 183 (peptide)
peptide: [Pen]NT[Trp(7-Me)]K(Lipidated)[Pen][5‑(4-(2-amino-2-carboxyethyl)phenoxy)‑N,N,N‑trimethylpentan‑1‑aminium][2‑amino‑3‑(6-hydroxynaphthalen-2-yl)propanoic acid][Thp]K(Ac)N[3Pal][Sar]
modifications: disulfide 1-6 (inferred); ends not checked; also: K5 lipidated lysine, lipid not given here
B4 came in with an IL23R Reporter Assay IC50 above 100 nM and a PBMC pSTAT3 IC50 below 1 nM. On the same counts, the results for R[Pen]ET[X1]K(Ac)[Pen][2‑amino‑3‑(4-(2-aminoethoxy)phenyl)propanoic acid][2‑amino‑3‑(6-hydroxynaphthalen-2-yl)propanoic acid][Thp]EN[3Pal][Sar] (disulfide 2-7 (inferred); ends not checked) [SEQ ID NO: 157] are below 10 nM and below 0.01 nM.

Regarding [Pen]NT[Trp(7-Me)]K(Ac)[Pen][X10][2Nal(6-OH)][Thp]EN[3Pal][Sar] (ends and bridges not checked) [SEQ ID NO: 24], the IL23R Reporter Assay IC50 is below 10 nM and the PBMC pSTAT3 IC50 was below 0.1 nM.

B5: SEQ ID NO: 188 (peptide)
peptide: [Pen]NT[Trp(7-Me)]K(Lipidated)[Pen][2‑amino‑3‑(4-(2-aminoethoxy)phenyl)propanoic acid][2‑amino‑3‑(6-hydroxynaphthalen-2-yl)propanoic acid][Thp]K(Ac)N[3Pal][Sar]
modifications: disulfide 1-6 (inferred); ends not checked; also: K5 lipidated lysine, lipid not given here
In turn, B5 yielded an IL23R Reporter Assay IC50 above 100 nM and a PBMC pSTAT3 IC50 below 1 nM.

The molecule R[Pen]ET[X1]K(Ac)[Pen][2‑amino‑3‑(4-(2-aminoethoxy)phenyl)propanoic acid][2‑amino‑3‑(6-hydroxynaphthalen-2-yl)propanoic acid][Thp]EN[3Pal][Sar] (disulfide 2-7 (inferred); ends not checked) [SEQ ID NO: 158] registered an IL23R Reporter Assay IC50 below 10 nM and a PBMC pSTAT3 IC50 below 0.01 nM.

B6: SEQ ID NO: 200 (peptide)
peptide: [Pen]NT[Trp(7-Me)]K(Lipidated)[Pen][2‑amino‑3‑(4-(2-aminoethoxy)phenyl)propanoic acid][2‑amino‑3‑(6-hydroxynaphthalen-2-yl)propanoic acid][Thp]K(PEG)N[3Pal][Sar]
modifications: disulfide 1-6 (inferred); ends not checked; also: lipid structure not given here, PEG size not given here
In the case of B6, the IL23R Reporter Assay IC50 is above 100 nM and the PBMC pSTAT3 IC50 is below 1 nM.

B7: SEQ ID NO: 187 (peptide)
peptide: [d(hLys(Me3))][Pen]NT[Trp(7-Me)]K(Lipidated)[Pen][2‑amino‑3‑(4-(2-aminoethoxy)phenyl)propanoic acid][2‑amino‑3‑(6-hydroxynaphthalen-2-yl)propanoic acid][Thp]K(Ac)N[3Pal][Sar]
modifications: disulfide 2-7 (inferred); ends not checked; also: K6 lipidated lysine, lipid not given here
Molecule B7 had an IL23R Reporter Assay IC50 above 100 nM and a PBMC pSTAT3 IC50 below 1 nM.

B8: SEQ ID NO: 177 (peptide)
peptide: [Pen]NT[Trp(7-Me)]K(Ac)[Pen][2‑amino‑3‑(4-(2-aminoethoxy)phenyl)propanoic acid][2‑amino‑3‑(6-hydroxynaphthalen-2-yl)propanoic acid][Thp]K(lipid)N[3Pal][Sar]
modifications: disulfide 1-6 (inferred); ends not checked; also: K10 lipidated, lipid not given here
Molecule B8 displayed an IL23R Reporter Assay IC50 above 100 nM and a PBMC pSTAT3 IC50 above 1 nM.
